Source: the supplement of paper PMC6757056
± gives the standard deviation of the averaged measurements.

B1: library; a variant is named by its letters at N, in order (parent)
chain: GCUGUCACCGAGAAACUGUGAAGUAUAUCUUAAACCUGGGCACUUAAAAGAUAUAUGGAGUUAGUAGUGCAACCUGCUCGGUCUGAUGAGUCCNNNNNNGGACGAAACAGC

Experiments:
cyclic di-GMP [1] = variants of: B1; assay: normalized RNA/DNA level without ligand (relative to sTRSVctl = 100) (log10 (% of sTRSVctl)); HEK293T; ligand: cyclic di-GMP (c-di-GMP-II aptamer); higher = less ribozyme self-cleavage, higher mRNA level; conditions: reporter: mCherry (pCS4076), ligand present: no
Summary of the method: (§1)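 Ribozyme switch library plasmids linked to reporters were introduced into HEK293T cells at 4 µg per 6-well well, with ligand, if any, added 1 h before. Total RNA was extracted with EDTA 72 h later, reverse-transcribed, amplified, barcoded and sequenced. RNA level was computed from RNA over DNA reads relative to a spiked-in non-cleaving sequence or the top sequences, then scaled and log-transformed. The top set was 25 sequences, values were ×100 and log10, and the cutoff was ≥100 DNA reads.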

cyclic di-GMP [2] = variants of: B1; assay: normalized RNA/DNA level with ligand (relative to sTRSVctl = 100) (log10 (% of sTRSVctl)); HEK293T; ligand: cyclic di-GMP (c-di-GMP-II aptamer); ligand concentration (+) RNA-Seq: 1 mM; higher = less ribozyme self-cleavage, higher mRNA level; conditions: reporter: mCherry (pCS4076), ligand present: yes
Summary of the method: as §1

Row | Variant | normalized RNA/DNA level without ligand (log10) (cyclic di-GMP [1]) | normalized RNA/DNA level with ligand (log10) (cyclic di-GMP [2])
1 | UCCCGG | 1.855 ± 0.016 | 1.93 ± 0.069
2 | UCCCGA | 1.77 ± 0.059 | 1.87 ± 0.1
3 | UCCCGC | 1.801 ± 0.018 | 1.91 ± 0.1
4 | ACCCUA | 1.624 ± 0.011 | 1.78 ± 0.072
5 | ACCCUU | 1.66 ± 0.046 | 1.78 ± 0.12
6 | GCCCCG | 1.799 ± 0.012 | 1.84 ± 0.086
7 | GCCCCC | 1.78 ± 0.026 | 1.88 ± 0.084
8 | ACCCGG | 1.7 ± 0.022 | 1.86 ± 0.099
9 | ACCCGU | 1.73 ± 0.023 | 1.84 ± 0.08
10 | ACCCGA | 1.54 ± 0.039 | 1.73 ± 0.13
11 | GCGACU | 1.57 ± 0.018 | 1.73 ± 0.089
12 | GCGACA | 1.52 ± 0.091 | 1.73 ± 0.084
13 | GCGCAC | 1.51 ± 0.075 | 1.66 ± 0.075
14 | GCGCAG | 1.78 ± 0.023 | 1.9 ± 0.094
15 | GCGCAA | 1.57 ± 0.044 | 1.72 ± 0.13
16 | UCCCUA | 1.696 ± 0.014 | 1.84 ± 0.092
17 | UCCCUC | 1.78 ± 0.038 | 1.89 ± 0.14
18 | UCCCUU | 1.69 ± 0.056 | 1.86 ± 0.14
19 | CCCAGU | 1.736 ± 0.015 | 1.86 ± 0.068
20 | CCCAGC | 1.72 ± 0.03 | 1.84 ± 0.16
21 | CCCAGG | 1.77 ± 0.025 | 1.89 ± 0.077
22 | CCCCUC | 1.73 ± 0.0095 | 1.87 ± 0.079
23 | UCCAUU | 1.63 ± 0.023 | 1.81 ± 0.14
24 | UCCAUG | 1.67 ± 0.021 | 1.85 ± 0.15

Row | Variant | normalized RNA/DNA level without ligand (log10) (cyclic di-GMP [1]) | normalized RNA/DNA level with ligand (log10) (cyclic di-GMP [2])
25 | UCCAUC | 1.7 ± 0.0059 | 1.8 ± 0.13
26 | UCCAUA | 1.53 ± 0.033 | 1.74 ± 0.13
27 | GCCCGA | 1.62 ± 0.052 | 1.79 ± 0.079
28 | GCCCGU | 1.73 ± 0.048 | 1.84 ± 0.14
29 | GCCCGC | 1.76 ± 0.04 | 1.86 ± 0.15
30 | UCCUCU | 1.74 ± 0.06 | 1.87 ± 0.13
31 | UCCUAA | 1.63 ± 0.077 | 1.79 ± 0.067
32 | UCCUAG | 1.71 ± 0.018 | 1.82 ± 0.087
33 | UCCUAU | 1.63 ± 0.085 | 1.8 ± 0.097
34 | UCCUAC | 1.75 ± 0.04 | 1.87 ± 0.14
35 | GCCCUC | 1.744 ± 0.0049 | 1.87 ± 0.12
36 | GCCCUG | 1.76 ± 0.021 | 1.86 ± 0.11
37 | GCCCUU | 1.701 ± 0.0065 | 1.85 ± 0.097
38 | CCCAUC | 1.728 ± 0.0037 | 1.84 ± 0.14
39 | CCCAUG | 1.53 ± 0.08 | 1.73 ± 0.13
40 | GCGAGA | 1.41 ± 0.14 | 1.63 ± 0.073
41 | GCGAGU | 1.53 ± 0.071 | 1.69 ± 0.11
42 | GCGAGC | 1.55 ± 0.066 | 1.71 ± 0.04
43 | GCGAGG | 1.613 ± 0.016 | 1.75 ± 0.16
44 | CCGACU | 1.59 ± 0.082 | 1.74 ± 0.077
45 | CCGACG | 1.6 ± 0.089 | 1.79 ± 0.052
46 | CCCGUU | 1.74 ± 0.032 | 1.87 ± 0.089
47 | CCCGUG | 1.62 ± 0.024 | 1.8 ± 0.09
48 | ACCCAU | 1.61 ± 0.018 | 1.79 ± 0.12

Row | Variant | normalized RNA/DNA level without ligand (log10) (cyclic di-GMP [1]) | normalized RNA/DNA level with ligand (log10) (cyclic di-GMP [2])
49 | ACCCAA | 1.56 ± 0.03 | 1.74 ± 0.15
50 | ACCCAG | 1.777 ± 0.0092 | 1.86 ± 0.06
51 | CCCUUG | 1.643 ± 0.0095 | 1.81 ± 0.13
52 | CCCUUA | 1.47 ± 0.04 | 1.7 ± 0.15
53 | CCCUUC | 1.729 ± 0.0068 | 1.86 ± 0.082
54 | CCCUUU | 1.61 ± 0.053 | 1.83 ± 0.096
55 | GCGCCA | 1.699 ± 0.0061 | 1.84 ± 0.13
56 | GCCGCA | 1.74 ± 0.0018 | 1.84 ± 0.14
57 | GCCGCC | 1.72 ± 0.033 | 1.82 ± 0.075
58 | GCCGCG | 1.79 ± 0.03 | 1.92 ± 0.07
59 | ACCUUG | 1.7 ± 0.065 | 1.81 ± 0.063
60 | ACCUUC | 1.74 ± 0.042 | 1.83 ± 0.11
61 | ACCUUU | 1.63 ± 0.02 | 1.82 ± 0.081
62 | ACCUUA | 1.67 ± 0.015 | 1.79 ± 0.14
63 | CCGAUA | 1.31 ± 0.13 | 1.54 ± 0.075
64 | CCGAUU | 1.54 ± 0.052 | 1.73 ± 0.12
65 | CCGAUC | 1.55 ± 0.019 | 1.73 ± 0.094
66 | ACGAAU | 1.31 ± 0.061 | 1.53 ± 0.079
67 | ACGAAC | 1.53 ± 0.11 | 1.72 ± 0.067
68 | ACGACA | 1.52 ± 0.087 | 1.74 ± 0.085
69 | ACGACU | 1.51 ± 0.085 | 1.73 ± 0.14
70 | ACGACG | 1.57 ± 0.058 | 1.74 ± 0.082
71 | UCCAGU | 1.63 ± 0.021 | 1.84 ± 0.11
72 | UCCAGG | 1.81 ± 0.046 | 1.9 ± 0.14

Row | Variant | normalized RNA/DNA level without ligand (log10) (cyclic di-GMP [1]) | normalized RNA/DNA level with ligand (log10) (cyclic di-GMP [2])
73 | UCCCAA | 1.6799 ± 0.00075 | 1.84 ± 0.077
74 | UCCCAG | 1.79 ± 0.048 | 1.9 ± 0.089
75 | UCCCAC | 1.758 ± 0.0044 | 1.87 ± 0.097
76 | UCCCAU | 1.71 ± 0.02 | 1.85 ± 0.16
77 | ACGAGG | 1.5 ± 0.06 | 1.69 ± 0.1
78 | ACGAGC | 1.62 ± 0.049 | 1.76 ± 0.084
79 | CCCCGG | 1.83 ± 0.049 | 1.94 ± 0.11
80 | CCCCGU | 1.76 ± 0.021 | 1.88 ± 0.14
81 | CCCCGC | 1.77 ± 0.03 | 1.88 ± 0.11
82 | CCCCGA | 1.6835 ± 0.00018 | 1.84 ± 0.13
83 | CCGAGG | 1.624 ± 0.0052 | 1.8 ± 0.071
84 | CCGAGU | 1.63 ± 0.025 | 1.8 ± 0.13
85 | UCCGAC | 1.65 ± 0.062 | 1.79 ± 0.1
86 | UCCGAA | 1.48 ± 0.015 | 1.69 ± 0.17
87 | UCCGAU | 1.59 ± 0.041 | 1.79 ± 0.08
88 | UCCGAG | 1.64 ± 0.082 | 1.79 ± 0.11
89 | GCCUCU | 1.721 ± 0.017 | 1.87 ± 0.04
90 | GCCUCC | 1.71 ± 0.02 | 1.84 ± 0.091
91 | GCCUCA | 1.737 ± 0.0028 | 1.87 ± 0.068
92 | GCCUCG | 1.761 ± 0.0043 | 1.892 ± 0.0091
93 | GCCUGC | 1.78 ± 0.032 | 1.86 ± 0.097
94 | GCCUGU | 1.69 ± 0.043 | 1.88 ± 0.12
95 | GCCUGG | 1.78 ± 0.061 | 1.91 ± 0.09
96 | GCCUGA | 1.6 ± 0.036 | 1.77 ± 0.069

Row | Variant | normalized RNA/DNA level without ligand (log10) (cyclic di-GMP [1]) | normalized RNA/DNA level with ligand (log10) (cyclic di-GMP [2])
97 | ACCGGG | 1.84 ± 0.027 | 1.91 ± 0.12
98 | ACCGGA | 1.51 ± 0.13 | 1.71 ± 0.056
99 | ACCGGU | 1.531 ± 0.003 | 1.76 ± 0.08
100 | ACCGGC | 1.784 ± 0.0037 | 1.92 ± 0.12
101 | CCCUAA | 1.45 ± 0.081 | 1.64 ± 0.13
102 | CCCUAC | 1.71 ± 0.026 | 1.82 ± 0.1
103 | CCCUAU | 1.62 ± 0.048 | 1.8 ± 0.069
104 | GCCUAG | 1.74 ± 0.068 | 1.86 ± 0.16
105 | GCCUAA | 1.59 ± 0.071 | 1.78 ± 0.055
106 | GCCUAC | 1.55 ± 0.059 | 1.72 ± 0.047
107 | GCCUAU | 1.662 ± 0.0027 | 1.85 ± 0.13
108 | ACCGAG | 1.57 ± 0.031 | 1.74 ± 0.11
109 | ACCGAC | 1.61 ± 0.06 | 1.77 ± 0.11
110 | ACCGAU | 1.48 ± 0.072 | 1.67 ± 0.091
111 | ACCCCA | 1.744 ± 0.012 | 1.86 ± 0.1
112 | ACCCCC | 1.82 ± 0.064 | 1.91 ± 0.14
113 | ACCCCU | 1.74 ± 0.036 | 1.86 ± 0.076
114 | ACCUCA | 1.62 ± 0.027 | 1.77 ± 0.12
115 | ACCUCU | 1.716 ± 0.0081 | 1.87 ± 0.1
116 | ACCUCG | 1.73 ± 0.056 | 1.83 ± 0.15
